Assay results taken from US20040092720A1 (US Dept. of Health and Human Services, published 2004).

B1: Peptide C35 (peptide)
peptide: SSFYRLRFELRYRAERSKTAT
notes: alanine-scan variant of the domain III 21-mer
B2: Peptide C36 (peptide)
peptide: SSFYRLRFELRYRAERSKAFT
notes: as for B1
B3: Peptide C37 (peptide)
peptide: SSFYRLRFELRYRAERSATFT
notes: as for B1
B4: Peptide C38 (peptide)
peptide: SSFYRLRFELRYRAERAKTFT
notes: as for B1
B5: Peptide C39 (peptide)
peptide: SSFYRLRFELRYRAEASKTFT
notes: as for B1
B6: Peptide C40 (peptide)
peptide: SSFYRLRFELRYRAARSKTFT
notes: as for B1
B7: Peptide C41 (peptide)
peptide: SSFYRLRFELRYAAERSKTFT
notes: as for B1
B8: Peptide C42 (peptide)
peptide: SSFYRLRFELRARAERSKTFT
notes: as for B1
B9: Peptide C43 (peptide)
peptide: SSFYRLRFELAYRAERSKTFT
notes: as for B1
B10: Peptide C44 (peptide)
peptide: SSFYRLRFEARYRAERSKTFT
notes: as for B1
B11: Peptide C45 (peptide)
peptide: SSFYRLRFALRYRAERSKTFT
notes: as for B1
B12: Peptide C46 (peptide)
peptide: SSFYRLRAELRYRAERSKTFT
notes: as for B1
B13: Peptide C47 (peptide)
peptide: SSFYRLAFELRYRAERSKTFT
notes: as for B1
B14: Peptide A34 (peptide)
peptide: AAGSHPSRWAGMGRRLLLRSA
notes: alanine-scan variant of the domain I 21-mer
B15: Peptide A35 (peptide)
peptide: AAGSHPSRWAGMGRRLLLRAV
notes: as for B14
B16: Peptide A36 (peptide)
peptide: AAGSHPSRWAGMGRRLLLASV
notes: as for B14
B17: Peptide A37 (peptide)
peptide: AAGSHPSRWAGMGRRLLARSV
notes: as for B14
B18: Peptide A38 (peptide)
peptide: AAGSHPSRWAGMGRRLALRSV
notes: as for B14
B19: Peptide A39 (peptide)
peptide: AAGSHPSRWAGMGRRALLRSV
notes: as for B14
B20: Peptide A40 (peptide)
peptide: AAGSHPSRWAGMGRALLLRSV
notes: as for B14
B21: Peptide A41 (peptide)
peptide: AAGSHPSRWAGMGARLLLRSV
notes: as for B14

The binders below were run against T1, recombinant human IL-6 (human, UniProt P05231 30-212, labeled with radioactive iodine) (assay: radioiodinated IL-6 on peptide array).
T1 construct: Labeled probe in solution, added to wells that carry the synthetic peptides; also called IL-6 ligand; Interleukin-6
Procedure: Synthetic peptide arrays were constructed in 96-well microtiter plates in accordance with the method set forth in WO 91/02714 (Saxinger), and used to test the binding of recombinant human IL-6 that had been labeled with radioactive iodine (radiolabeling by standard methods). After incubating the radiolabeled IL-6 ligand in a well with each synthetic peptide, a washing step was performed to remove unbound label, and the relative level of radioactivity remaining in each well of the plate was evaluated to determine the relative affinity of each peptide for IL-6 ligand.

Question: How did the Counts/minute bound turn out when SSFYRLRFE [Peptide C13] was run?
Answer: 1020 counts/minute

Question: With SSFYRLRF [Peptide C14] as the binder, how does the Counts/minute bound read?
Answer: 952 counts/minute

Question: Which Counts/minute bound does the source give for SSFYRLR (also called SSFYRLR) [Peptide C15] here?
Answer: 991 counts/minute

Question: Which Counts/minute bound does the source give for SSFYRL (also called SSFYRL) [Peptide C16] here?
Answer: 865 counts/minute

Question: For AAGSHPSRWAGMGRRLLL [Peptide A4], which Counts/minute bound is on record?
Answer: 5280 counts/minute

Question: For SFYRLRFELRYRAERSKTFT [Peptide C18], which Counts/minute bound is on record?
Answer: 12800 counts/minute

Question: Which Counts/minute bound does the source give for FYRLRFELRYRAERSKTFT [Peptide C19] here?
Answer: 10100 counts/minute

Question: With YRLRFELRYRAERSKTFT [Peptide C20] as the binder, how does the Counts/minute bound read?
Answer: 7570 counts/minute

Question: With RLRFELRYRAERSKTFT [Peptide C21] as the binder, how does the Counts/minute bound read?
Answer: 5990 counts/minute

Question: LRFELRYRAERSKTFT [Peptide C22] was tested. Which Counts/minute bound did it give?
Answer: 9610 counts/minute

Question: RFELRYRAERSKTFT [Peptide C23] was tested. Which Counts/minute bound did it give?
Answer: 5310 counts/minute

Question: With FELRYRAERSKTFT [Peptide C24] as the binder, how does the Counts/minute bound read?
Answer: 5110 counts/minute

Question: Which Counts/minute bound does the source give for ELRYRAERSKTFT [Peptide C25] here?
Answer: 2200 counts/minute

Question: Which Counts/minute bound does the source give for LRYRAERSKTFT [Peptide C26] here?
Answer: 6380 counts/minute

Question: With RYRAERSKTFT [Peptide C27] as the binder, how does the Counts/minute bound read?
Answer: 3150 counts/minute

Question: How did the Counts/minute bound turn out when AAGSHPSRWAGMGRRLL [Peptide A5] was run?
Answer: 2750 counts/minute

Question: YRAERSKTFT [Peptide C28] was tested. Which Counts/minute bound did it give?
Answer: 2400 counts/minute

Question: For RAERSKTFT [Peptide C29], which Counts/minute bound is on record?
Answer: 1430 counts/minute

Question: How did the Counts/minute bound turn out when AERSKTFT [Peptide C30] was run?
Answer: 1200 counts/minute

Question: Which Counts/minute bound does the source give for ERSKTFT (also called ERSKTFT) [Peptide C31] here?
Answer: 1030 counts/minute

Question: With RSKTFT (also called RSKTFT) [Peptide C32] as the binder, how does the Counts/minute bound read?
Answer: 1340 counts/minute

Question: How did the Counts/minute bound turn out when SSFYRLRFELRYRAERSKTFA [Peptide C34] was run?
Answer: 17000 counts/minute

Question: How did the Counts/minute bound turn out when B1 was run?
Answer: 14800 counts/minute

Question: For B2, which Counts/minute bound is on record?
Answer: 15000 counts/minute

Question: With B3 as the binder, how does the Counts/minute bound read?
Answer: 7220 counts/minute

Question: For B4, which Counts/minute bound is on record?
Answer: 12300 counts/minute

Question: How did the Counts/minute bound turn out when B5 was run?
Answer: 3430 counts/minute

Question: With B6 as the binder, how does the Counts/minute bound read?
Answer: 17300 counts/minute

Question: For B7, which Counts/minute bound is on record?
Answer: 6740 counts/minute

Question: With B8 as the binder, how does the Counts/minute bound read?
Answer: 17500 counts/minute

Question: How did the Counts/minute bound turn out when B9 was run?
Answer: 7550 counts/minute

Question: For B10, which Counts/minute bound is on record?
Answer: 14100 counts/minute

Question: Which Counts/minute bound does the source give for B11 here?
Answer: 26800 counts/minute

Question: Which Counts/minute bound does the source give for B12 here?
Answer: 13400 counts/minute

Question: How did the Counts/minute bound turn out when B13 was run?
Answer: 9760 counts/minute

Question: How did the Counts/minute bound turn out when AAGSHPSRWAGMGRR [Peptide A7] was run?
Answer: 1340 counts/minute

Question: AAGSHPSRWAGMGR [Peptide A8] was tested. Which Counts/minute bound did it give?
Answer: 1480 counts/minute

Question: With AAGSHPSRWAGMG [Peptide A9] as the binder, how does the Counts/minute bound read?
Answer: 1470 counts/minute

Question: How did the Counts/minute bound turn out when AAGSHPSRWAGM [Peptide A10] was run?
Answer: 1440 counts/minute

Question: How did the Counts/minute bound turn out when AAGSHPSRWAG [Peptide A11] was run?
Answer: 1430 counts/minute

Question: AAGSHPSRWA [Peptide A12] was tested. Which Counts/minute bound did it give?
Answer: 1330 counts/minute

Question: How did the Counts/minute bound turn out when AAGSHPSRW [Peptide A13] was run?
Answer: 1520 counts/minute

Question: AAGSHPSR [Peptide A14] was tested. Which Counts/minute bound did it give?
Answer: 1350 counts/minute

Question: How did the Counts/minute bound turn out when AAGSHPS (also called AAGSHPS) [Peptide A15] was run?
Answer: 1320 counts/minute

Question: With AAGSHP (also called AAGSHP) [Peptide A16] as the binder, how does the Counts/minute bound read?
Answer: 1570 counts/minute

Question: How did the Counts/minute bound turn out when AGSHPSRWAGMGRRLLLRSV [Peptide A18] was run?
Answer: 13400 counts/minute

Question: For GSHPSRWAGMGRRLLLRSV [Peptide A19], which Counts/minute bound is on record?
Answer: 11000 counts/minute

Question: How did the Counts/minute bound turn out when SHPSRWAGMGRRLLLRSV [Peptide A20] was run?
Answer: 12000 counts/minute

Question: HPSRWAGMGRRLLLRSV [Peptide A21] was tested. Which Counts/minute bound did it give?
Answer: 12000 counts/minute

Question: With PSRWAGMGRRLLLRSV [Peptide A22] as the binder, how does the Counts/minute bound read?
Answer: 11100 counts/minute

Question: SRWAGMGRRLLLRSV [Peptide A23] was tested. Which Counts/minute bound did it give?
Answer: 8270 counts/minute

Question: RWAGMGRRLLLRSV [Peptide A24] was tested. Which Counts/minute bound did it give?
Answer: 12100 counts/minute

Question: How did the Counts/minute bound turn out when WAGMGRRLLLRSV [Peptide A25] was run?
Answer: 12200 counts/minute

Question: Which Counts/minute bound does the source give for AGMGRRLLLRSV [Peptide A26] here?
Answer: 7620 counts/minute

Question: How did the Counts/minute bound turn out when GMGRRLLLRSV [Peptide A27] was run?
Answer: 6820 counts/minute

Question: Which Counts/minute bound does the source give for MGRRLLLRSV [Peptide A28] here?
Answer: 7140 counts/minute

Question: For GRRLLLRSV [Peptide A29], which Counts/minute bound is on record?
Answer: 5370 counts/minute

Question: RRLLLRSV [Peptide A30] was tested. Which Counts/minute bound did it give?
Answer: 5970 counts/minute

Question: For RLLLRSV (also called RLLLRSV) [Peptide A31], which Counts/minute bound is on record?
Answer: 5460 counts/minute

Question: Which Counts/minute bound does the source give for LLLRSV (also called LLLRSV) [Peptide A32] here?
Answer: 1600 counts/minute

Question: Which Counts/minute bound does the source give for B14 here?
Answer: 11800 counts/minute

Question: How did the Counts/minute bound turn out when B15 was run?
Answer: 11200 counts/minute

Question: For B16, which Counts/minute bound is on record?
Answer: 4900 counts/minute

Question: For B17, which Counts/minute bound is on record?
Answer: 7730 counts/minute

Question: How did the Counts/minute bound turn out when B18 was run?
Answer: 7080 counts/minute

Question: With B19 as the binder, how does the Counts/minute bound read?
Answer: 5280 counts/minute

Question: For B20, which Counts/minute bound is on record?
Answer: 4250 counts/minute

Question: B21 was tested. Which Counts/minute bound did it give?
Answer: 4460 counts/minute
